Here are results for one substance from paper PMC11112126.

The stoichiometry N is the number of molecules, sites or subunits per partner or assembly.

In experiment [1] the target is SH3P2 (Arabidopsis thaliana) (UniProt Q8VWF1). The experiment is described as follows: mass photometry; SH3P2 at 75 nM; 25 mM HEPES pH 7.5, 200 mM NaCl, 25 mM KH2PO4 pH 8.0; monomer to dimer.
For experiment [2] the target is unchanged. The experiment is described as follows: mass photometry; SH3P2 at 100 nM; 25 mM HEPES pH 7.5, 200 mM NaCl, 25 mM KH2PO4 pH 8.0; monomer to dimer.

With “SH3P2 (from UniProt Q8VWF1 1-368) (natural protein)”, the percent of dimers at 75 nM in experiment [1] is 60%. In experiment [2], this substance yielded a percent of dimers at 100 nM of 85% and a stoichiometry N of 2.
